Target: GST-LIF05 (mutant human LIF, LIFR antagonist, as glutathione-S-transferase fusion protein) (human) (UniProt P15018)
Test: SPR

Sequence of GST-LIF05 (mutant human LIF, LIFR antagonist, as glutathione-S-transferase fusion protein) (human) (P15018 23-202, change not shown): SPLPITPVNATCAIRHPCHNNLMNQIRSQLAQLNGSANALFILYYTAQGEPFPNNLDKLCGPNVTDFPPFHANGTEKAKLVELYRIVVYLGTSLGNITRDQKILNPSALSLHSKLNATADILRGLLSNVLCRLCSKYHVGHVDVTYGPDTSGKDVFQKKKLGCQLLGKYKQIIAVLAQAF

Kd: 4.72 nM | koff: 0.00265 s⁻¹ | kon: 562000 M⁻¹ s⁻¹
B1: soluble LIFR (leukemia inhibitory factor receptor) (receptor)
chain: QKKGAPHDLKCVTNNLQVWNCSWKAPSGTGRGTDYEVCIENRSRSCYQLEKTSIKIPALSHGDYEITINSLHDFGSSTSKFTLNEQNVSLIPDTPEILNLSADFSTSTLYLKWNDRGSVFPHRSNVIWEIKVLRKESMELVKLVTHNTTLNGKDTLHHWSWASDMPLECAIHFVEIRCYIDNLHFSGLEEWSDWSPVKNISWIPDSQTKVFPQDKVILVGSDITFCCVSQEKVLSALIGHTNCPLIHLDGENVAIKIRNISVSASSGTNVVFTTEDNIFGTVIFAGYPPDTPQQLNCETHDLKEIICSWNPGRVTALVGPRATSYTLVESFSGKYVRLKRAEAPTNESYQLLFQMLPNQEIYNFTLNAHNPLGRSQSTILVNITEKVYPHTPTSFKVKDINSTAVKLSWHLPGNFAKINFLCEIEIKKSNSVQEQRNVTIKGVENSSYLVALDKLNPYTLYTFRIRCSTETFWKWSKWSNKKQHLTTEASPSKGPDTWREWSSDGKNLIIYWKPLPINEANGKILSYNVSCSSDEETQSLSEIPDPQHKAEIRLDKNDYIISVVAKNSVGSSPPSKIASMEIPNDDLKIEQVVGMGKGILLTWHYDPNMTCDYVIKWCNSSRSEPCLMDWRKVPSNSTETVIESDEFRPGIRYNFFLYGCRNQGYQLLRSMIGYIEELAPIVAPNFTVEDTSADSILVKWEDIPVEELRGFLRGYLFYFGKGERDTSKMRVLESGRSDIKVKNITDISQKTLRIADLQGKTSYHLVLRAYTDGGVGPEKSMYVVTKENS

Source: paper PMC2683190
